Data on 26 molecules can be found in US20260250737A1, “Engineered Luciferases and Luciferin Substrates” (Monod Bio, Inc., priority 2023, published 2026).

This experiment has as its system SmLux. The experiment can be described thus: Computationally generated LgLux variants expressed in E. coli, tested in lysates with SmLux and substrate 1c. As to conditions: 50 uM substrate 1c; for Fold change upon SmLux peptide addition: 20 uM SmLux; for Baseline Signal (Normalized by expression): before SmLux peptide addition. The format is biochemical. The method, then: LgLux sequences were designed computationally, and their activity measured as depicted schematically in FIG. 45.
A library of the computationally generated LgLux variants were expressed in E. coli and tested in lysates. 20 uM of SmLux and 50 uM of substrate 1c was used for the screening.
LgLux_4039 sequence is as set forth in SEQ ID NO:2773. MBIO-5103 through MBIO-5124, MBIO-5261 through MBIO-5295, MBIO-5101, and MBIO-5102 (SEQ ID NO:2815-SEQ ID NO:2873, respectively) are computationally generated LgLux. The sequences and activity of these LgLux are shown below in Table 21.
MBIO-5358 and MBIO-5360 through MBIO-5381 (SEQ ID NO:2774-SEQ ID NO:2796, respectively) are computationally generated LgLux.

B1: 5294 (protein)
chain: MTPEEIRANVRAFYAALASGDLEAAKALFDPGVTITLWDGTTFTSVEEFRAWFEEQFQTSKDALREIESLEVEGDVVRVLVRLTFTRDGKVEEVDLLQLFKFV
B1: the “Fold change upon SmLux peptide addition” value is 1.46 and the “Baseline Signal (Normalized by expression)” value amounted to 175.2.

B2: 5102 (protein)
chain: MSEEQIRQNLRRFYEALDSGDAITAASLFDPGVTITLWDGTTFTSVEEFREWFESQFSTSKDALREISSLEVRGDTVEVTVRLSFTRNGQKHTVDLLQLFKFVGNRVVADRVYVNPTG
For the molecule B2, the “Fold change upon SmLux peptide addition” value is given as 2.2 and the “Baseline Signal (Normalized by expression)” value stood at 2169.2.

B3: 5290 (protein)
chain: MTPEEIIENVRRFYAALASGDLETAKSLFDPGVTITLWDGTTFTSVEEFRAWFEAQFQTSKDALREIVSIEVEGDVVRVLVRLTFTRDGQTQEVDLLQLFKFV
As to B3, the “Fold change upon SmLux peptide addition” value was 1.11 and the “Baseline Signal (Normalized by expression)” value is 162.2.

B4: 5289 (protein)
chain: MTPEEIRANVERFYAALASGDLAAAKALFDPGVTITLWDGTTFTSVEEFRAWFEEQFQTSKDALREIVSMEIDGDTVRVLVRLTFVRDGEEQEVDLLQLFKFV
Regarding B4, the “Fold change upon SmLux peptide addition” value stood at 1.92 and the “Baseline Signal (Normalized by expression)” value turned out to be 173.8.

B5: 5101 (protein)
chain: MSEEQIRQNLRRFYEALDSGDAITAASLFDPGVTITLWDGTTFTSVEEFREWFESQFSTSKDALREISSLEVRGDTVEVTVRLSFTRNGQKHTVDLLQLFKFVGGGGGGNRVVADRVYVNPTG
As to B5, the “Fold change upon SmLux peptide addition” value is recorded as 0.87 and the “Baseline Signal (Normalized by expression)” value was 229.6.

B6: 5108 (protein)
chain: MTPEEIIENVKAFYAALASGDLEAAKALFDPGTTITLWDGTTFTSLEEFLEWFEKQFEASKDAKREIKSIEVEGNVVKVLVRLTYVKDGKEKVVDLLQLLKFV
In the case of B6, the “Fold change upon SmLux peptide addition” value was found to be 0.92 and the “Baseline Signal (Normalized by expression)” value was 167.4.

B7: 5287 (protein)
chain: MTPEAIRENVRAFYAALASGDWAAAKALFDPGVTITLWDGTTFTSVEEFRAWFEKQFKTSKDALREIVSMEVEGDVVRVLVRLTFVRDGKEQVVDLLQLFKFV
For the molecule B7, the “Fold change upon SmLux peptide addition” value came out at 1.1 and the “Baseline Signal (Normalized by expression)” value came to 174.8.

B8: 5295 (protein)
chain: MTPEEIRANVRAFYAALASGDLAAAKALFDPGVTITLWDGTTFTSVEEFRAWFEEQFETSKDALREIVSMEVEGDTVRVLVRLTFTRNGEEKVVDLLQLFKFV
For B8, the “Fold change upon SmLux peptide addition” value came to 1.28 and the “Baseline Signal (Normalized by expression)” value is listed as 186.4.

B9: 5293 (protein)
chain: MTPEEIRANVRRFYAALASGDLATAEALFDPGVTITLWDGTTFTSVAEFRAWFEKQFKTSKDALREIESMEIEGDTVRVLVRLTFVRDGKEQVVDLLQLFKFV
Regarding B9, the “Fold change upon SmLux peptide addition” value is reported as 3.78 and the “Baseline Signal (Normalized by expression)” value was 166.2.

B10: 5291 (protein)
chain: MTPEEIRENVRRFYAALASGDLETAKALFDPGVTITLWDGTTFTSVEEFRAWFEEQFQTSKDALREIVSMEIEGDVVRVLVRLTFVRDGKEEVVDLLQLFKFV
Consider B10, for which the “Fold change upon SmLux peptide addition” value came to 1.02 and the “Baseline Signal (Normalized by expression)” value is listed as 170.2.

B11: 5288 (protein)
chain: MTPEAIIANVKAFYAALASGDLAAAKALFDPGVTITLWDGTTFTSVEEFRAWFEEQFKTSKDALREIESMEVEGDTVRVLVRLTFVRDGKEEVVDLLQLFKFV
Consider B11, for which the “Fold change upon SmLux peptide addition” value turned out to be 1.6 and the “Baseline Signal (Normalized by expression)” value is recorded as 170.8.

B12: 5105 (protein)
chain: MTPEEIIANVKKFYEALASGDLATAKSLFDPGTTITLWDGTTFTSLEEFLAWFEKQFKASKDAKREIVSIEVDGNVVKVLVRLTYTVDGKEKVVDLLQLLKFV
With B12, the “Fold change upon SmLux peptide addition” value came to 1 and the “Baseline Signal (Normalized by expression)” value is on record as 167.4.

B13: 5115 (protein)
chain: MTPEEIIANVKKFYAALASGDLETAKALFDPGTTITLWDGTTFTSLEEFLAWFEKQFEASKDAKREIVSIEVKGNTVKVLVRLTYVKDGKEQVVDLLQLLKFV
In the case of B13, the “Fold change upon SmLux peptide addition” value was 3.07 and the “Baseline Signal (Normalized by expression)” value is on record as 165.

B14: 5110 (protein)
chain: MTPEEIIENVKKFYEALASGDLETAKSLFDPGTTITLWDGTTFTSLEEFLEWFEKQFEASKDAKREILSIEVEGNVVKVLVRLTYTKDGKEKVVDLLQLLKFV
Regarding B14, the “Fold change upon SmLux peptide addition” value is 0.97 and the “Baseline Signal (Normalized by expression)” value is reported as 167.6.

B15: 5114 (protein)
chain: MTPEEIIANVKNFYAALASGDLEAAKALFDPGTTITLWDGTTFTSLEEFLAWFEKQFKASKDAKREIVSMEVEGNVVKVLVRLTYTVDGEEKVVDLLQLLKFV
As for B15, the “Fold change upon SmLux peptide addition” value worked out at 1.38 and the “Baseline Signal (Normalized by expression)” value came to 271.8.

B16: 5118 (protein)
chain: MTPEEIIANVKAFYAALASGDLAAAKALFDPGTTITLWDGTTFTSLDEFLAWFEKQFKASKDAKREILDIEVEGDVVRVLVRLTYTVDGKEKVVDLLQLLKFV
For B16, the “Fold change upon SmLux peptide addition” value was 1.05 and the “Baseline Signal (Normalized by expression)” value is recorded as 152.

B17: 5106 (protein)
chain: MTEEEIIANVEKFYAALASGDLETAKALFDPGTTITLWDGTTFTSLEEFLAWFEKQFKASKDAKREIVSIEVEGDTVKVLVRLTYTVDGKEKVVDLLQLLKFV
In the case of B17, the “Fold change upon SmLux peptide addition” value came out at 1 and the “Baseline Signal (Normalized by expression)” value amounted to 169.8.

B18: 5107 (protein)
chain: MTPEEIKANVEAFYAALASGDLEKAKALFDPGTTITLWDGTTFTSLEEFLAWFEKQFKASKDAKREIVSMKVEGDTVRVLVRLTYTKDGKEQVVDLLQLIKVV
As for B18, the “Fold change upon SmLux peptide addition” value is listed as 0.99 and the “Baseline Signal (Normalized by expression)” value was determined as 167.8.

B19: 5117 (protein)
chain: MTDEEIRANVRAFYAALASGDLETAKALFDPGTTITLWDGTTFTSLEEFLAWFEKQFKTSKDAKREIVSLEVEGDTVRVLVRLTYTKDGKEEVVDLLQLLKFV
Regarding B19, the “Fold change upon SmLux peptide addition” value came to 1.05 and the “Baseline Signal (Normalized by expression)” value is 154.8.

B20: 5109 (protein)
chain: MTPEEIRANVKAFYAALASGDLEKAKALFDPGTTITLWDGTTFTSLEEFLAWFEKQFKASKDAKREIVSMEINGDTVRVLVRLTYTVDGEEKVVDLLQLLKFV
In the case of B20, the “Fold change upon SmLux peptide addition” value stood at 0.98 and the “Baseline Signal (Normalized by expression)” value is listed as 169.

B21: 5112 (protein)
chain: MTPEEIRANVRAFYAALASGDLEAAKALFDPGTTITLWDGTTFTSLEEFLAWFEKQFKASKDAKREIVSLEVEGDVVRVLVRLTYVKDGKEEVVDLLQLLKFV
With B21, the “Fold change upon SmLux peptide addition” value amounted to 0.93 and the “Baseline Signal (Normalized by expression)” value is 174.4.

B22: 5113 (protein)
chain: MTPEEIRANVEAFYAALASGDLEAAKALFDPGTTITLWDGTTFTSLEEFLAWFEKQFEASKDAKREILSLEIEGNTVRVLVRLTYTKDGKEQVVDLLQLLKFV
As to B22, the “Fold change upon SmLux peptide addition” value turned out to be 1.15 and the “Baseline Signal (Normalized by expression)” value stood at 180.6.

B23: 5111 (protein)
chain: MTPEEIRANVEAFYAALASGDLEAAKALFDPGTTITLWDGTTFTSLEEFLAWFEKQFETSKDAKREIVSLEIEGDTVRVLVRLTYTKNGEVKEVDLLQLLKFV
Consider B23, for which the “Fold change upon SmLux peptide addition” value worked out at 1.01 and the “Baseline Signal (Normalized by expression)” value is 166.2.

B24: 5119 (protein)
chain: MTPEQIRANVERFYAALASGDLETAKALFDPGTTITLWDGTTFTSLEEFLAWFEKQFKASKDAKREIVSLEIEGDTVRVLVRLTYTVDGEVKEVDLLQLLKFV
For B24, the “Fold change upon SmLux peptide addition” value is reported as 0.98 and the “Baseline Signal (Normalized by expression)” value is 155.6.

B25: 5292 (protein)
chain: MTPEEIIENVKNFYAALASGDLEKAKALFDPGVTITLWDGTTFTSVEEFRKWFEEQFKTSKDALREIKSIEVEGDVVRVLVRLTFVRDGEVQEVDLLQLFKFV
For the molecule B25, the “Fold change upon SmLux peptide addition” value is given as 6.75 and the “Baseline Signal (Normalized by expression)” value was determined as 168.6.

B26: 5116 (protein)
chain: MTPEEIRANVERFYAALASGDLDTAKALFDPGTTITLWDGTTFTSLEEFLAWFEKQFKASKDAKREIVELEIEGNVVRVLVRLTYVKDGKEQVVDLLQLLKFV
In the case of B26, the “Fold change upon SmLux peptide addition” value turned out to be 1.11 and the “Baseline Signal (Normalized by expression)” value was 162.6.
